The target in the test is T1, talin (Homo sapiens (Human), UniProt Q9Y490 1-2541).
T1 construct: Endogenous talin of HEK293T (and other) cells, detected with anti-talin antibody; also called talin (endogenous, in cell lysates)
Nature of the test: immunoprecipitation of talin from HEK293T cells overexpressing the kinase.

T1 sequence (Q9Y490 other isoform, or with tags, fused parts or gaps limits assumed): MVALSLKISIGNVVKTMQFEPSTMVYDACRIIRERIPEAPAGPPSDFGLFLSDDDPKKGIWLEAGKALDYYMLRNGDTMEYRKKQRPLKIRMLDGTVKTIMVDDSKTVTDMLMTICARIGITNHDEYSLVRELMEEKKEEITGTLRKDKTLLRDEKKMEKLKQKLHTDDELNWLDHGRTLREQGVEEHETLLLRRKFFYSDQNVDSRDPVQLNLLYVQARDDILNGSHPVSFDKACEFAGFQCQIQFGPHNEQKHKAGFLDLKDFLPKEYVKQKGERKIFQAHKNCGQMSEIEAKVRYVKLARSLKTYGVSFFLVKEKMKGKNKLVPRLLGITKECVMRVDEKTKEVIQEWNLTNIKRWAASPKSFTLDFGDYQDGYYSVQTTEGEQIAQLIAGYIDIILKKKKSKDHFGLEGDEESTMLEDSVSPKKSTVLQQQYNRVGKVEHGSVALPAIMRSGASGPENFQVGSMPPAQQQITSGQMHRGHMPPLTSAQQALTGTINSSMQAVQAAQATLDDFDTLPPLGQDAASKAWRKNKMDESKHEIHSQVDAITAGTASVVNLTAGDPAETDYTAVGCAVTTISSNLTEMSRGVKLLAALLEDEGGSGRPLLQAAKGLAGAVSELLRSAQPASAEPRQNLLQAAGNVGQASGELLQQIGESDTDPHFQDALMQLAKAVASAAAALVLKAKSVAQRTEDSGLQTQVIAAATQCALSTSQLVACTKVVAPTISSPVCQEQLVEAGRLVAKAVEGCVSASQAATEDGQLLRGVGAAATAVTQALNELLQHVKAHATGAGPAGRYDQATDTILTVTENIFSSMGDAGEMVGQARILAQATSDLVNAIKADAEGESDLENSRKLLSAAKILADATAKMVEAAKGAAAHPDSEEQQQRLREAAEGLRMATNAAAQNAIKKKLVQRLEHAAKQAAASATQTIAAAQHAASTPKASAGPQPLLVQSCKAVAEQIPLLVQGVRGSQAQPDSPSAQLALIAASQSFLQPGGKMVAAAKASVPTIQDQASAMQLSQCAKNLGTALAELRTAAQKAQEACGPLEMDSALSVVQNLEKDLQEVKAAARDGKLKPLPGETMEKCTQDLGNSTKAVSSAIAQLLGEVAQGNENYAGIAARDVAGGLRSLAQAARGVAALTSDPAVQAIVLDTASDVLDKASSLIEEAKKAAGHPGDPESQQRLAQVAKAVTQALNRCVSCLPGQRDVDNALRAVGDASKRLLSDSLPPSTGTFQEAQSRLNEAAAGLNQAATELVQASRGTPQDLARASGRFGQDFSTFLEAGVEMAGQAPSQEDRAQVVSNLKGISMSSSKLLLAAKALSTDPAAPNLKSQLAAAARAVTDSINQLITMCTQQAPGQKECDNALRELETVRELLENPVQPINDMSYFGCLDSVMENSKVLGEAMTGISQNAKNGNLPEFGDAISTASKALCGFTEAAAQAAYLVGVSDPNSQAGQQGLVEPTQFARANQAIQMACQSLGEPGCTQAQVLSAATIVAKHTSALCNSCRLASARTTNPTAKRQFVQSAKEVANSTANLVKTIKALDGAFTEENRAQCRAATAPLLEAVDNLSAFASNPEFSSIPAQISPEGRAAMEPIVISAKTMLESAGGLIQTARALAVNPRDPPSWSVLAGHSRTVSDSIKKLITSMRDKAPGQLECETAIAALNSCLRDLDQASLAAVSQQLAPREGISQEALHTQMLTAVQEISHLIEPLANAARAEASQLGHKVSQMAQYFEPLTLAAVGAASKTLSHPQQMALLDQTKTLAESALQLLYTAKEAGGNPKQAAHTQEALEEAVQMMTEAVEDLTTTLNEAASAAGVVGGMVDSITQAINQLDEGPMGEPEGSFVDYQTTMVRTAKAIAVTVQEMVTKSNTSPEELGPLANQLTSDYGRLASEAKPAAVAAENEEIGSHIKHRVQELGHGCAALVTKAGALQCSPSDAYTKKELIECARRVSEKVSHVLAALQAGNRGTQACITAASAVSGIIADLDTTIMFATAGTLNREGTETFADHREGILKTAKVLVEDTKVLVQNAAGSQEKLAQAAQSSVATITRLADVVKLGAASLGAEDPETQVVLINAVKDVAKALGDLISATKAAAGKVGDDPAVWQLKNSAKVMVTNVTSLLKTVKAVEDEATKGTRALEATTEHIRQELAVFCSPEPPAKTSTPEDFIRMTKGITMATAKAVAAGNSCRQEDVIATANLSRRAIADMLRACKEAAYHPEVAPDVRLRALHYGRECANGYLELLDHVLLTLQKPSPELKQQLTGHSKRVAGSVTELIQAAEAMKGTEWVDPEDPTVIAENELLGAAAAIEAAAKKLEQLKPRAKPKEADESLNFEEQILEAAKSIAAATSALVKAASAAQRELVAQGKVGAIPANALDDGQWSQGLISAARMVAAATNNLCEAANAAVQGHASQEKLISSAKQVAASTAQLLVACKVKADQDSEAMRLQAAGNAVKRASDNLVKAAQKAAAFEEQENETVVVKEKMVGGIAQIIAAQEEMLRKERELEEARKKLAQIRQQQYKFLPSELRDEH

B1: Haemagglutinin (HA)-tagged PIPKIγ635 (enzyme, not shown: small tags and cut ends)
chain: MELEVPDEAESAEAGAVTAEAAWSAESGAAAGMTQKKAGLAEAPLVTGQPGPGHGKKLGHRGVDASGETTYKKTTSSTLKGAIQLGIGYTVGNLSSKPERDVLMQDFYVMESIFFPSEGSNFTPAHHFQDFRFKTYAPVAFRYFRELFGIRPDDYLYSLCNEPLIELSNPGASGSVFYVTSDDEFIIKTVMHKEAEFLQKLLPGYYMNLNQNPRTLLPKFYGLYCVQSGGKNIRVVVMNNVLPRVVKMHLKFDLKGSTYKRRASKKEKEKSLPTYKDLDFMQDMPEGLLLDSDTFGALVKTLQRDCLVLESFKIMDYSLLLGVHNIDQQERERQAEGAQSKADEKRPVAQKALYSTAMESIQGGAARGEAIETDDTMGGIPAVNGRGERLLLHIGIIDILQSYRFIKKLEHTWKALVHDGDTVSVHRPSFYAERFFKFMSSTVFRKSSSLKSSPSKKGRGALLAVKPLGPTAAFSASQIPSEREDVQYDLRGARSYPTLEDEGRPDLLPCTPPSFEEATTASIATTLSSTSLSIPERSPSDTSEQPRYRRRTQSSGQDGRPQEEPHAEDLQKITVQVEPVCGVGVVPKEEGAGVEVPPCGASAAASVEIDAASQASEPASQASDEEDAPSTDIYF
In the case of B1, the binding result was “no binding”.

Source of the values: US20040265295A1 (WISCONSIN ALUMNI RESEARCH FOUNDATION, published 2004).
